The supplement of paper PMC9732359
± gives the uncertainty stated by the source.

Assay: protein stability index of a GFP-peptide fusion (yeast GPS) (PSI 1-4); higher = more stable; sorted into four equal gates, so the index is relative within each strain
Method in brief: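 Sequencing reads from sorted gates were used to score each peptide. The library consisted of tiled 17-residue yeast protein peptides fused downstream of GFP on a Cherry-expressing plasmid, pooled and carried in yeast. Mid-log cultures in leucine-free medium were split into four equal gates by GFP/Cherry ratio, and each gate's plasmids were PCR-amplified and Illumina-sequenced. The protein stability index adds up, over all gates, the read frequency multiplied by the gate number.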

Sequence	protein stability index (doa10∆)	protein stability index (pdr5∆)	protein stability index (san1∆)	protein stability index (ubr1∆)
FVKGISRDIKALQDSLF [YML103C/NUP188]	2.25 ± 0.071	2.18 ± 0.058	1.97 ± 0.096	1.7 ± 0.043
DELITEGNEKLAAVPAA [RPP2A]	2.71 ± 0.09	2.92 ± 0.099	2.74 ± 0.083	2.78 ± 0.09
RPKCGDCGSALQGISTL [RPL34A]	1.34 ± 0.08	1.42 ± 0.067	1.32 ± 0.1	1.41 ± 0.052
ARVILYLKNVLFAFNGV [SIN4]	2.38 ± 0.064	1.57 ± 0.06	1.42 ± 0.077	1.38 ± 0.042
SKSAFSFGTANTNGTNA [YOR098C/NUP1]	3 ± 0.088	3.08 ± 0.088	2.77 ± 0.14	2.86 ± 0.067
TYLTQEILILINDPTNK [SIN4]	1.31 ± 0.06	1.55 ± 0.051	1.36 ± 0.091	1.26 ± 0.05
IDKNHGFERLTVNEPQM [SRB7]	3.03 ± 0.094	3.25 ± 0.075	3.23 ± 0.14	3.02 ± 0.052
IAAERAARKAANKEKRA [RPL7B]	3.27 ± 0.16	3.59 ± 0.21	3.28 ± 0.22	3.3 ± 0.17
LKTEAANVLDPSLRKLI [BRR2]	2.44 ± 0.052	2.61 ± 0.059	2.9 ± 0.064	2.68 ± 0.039
IAKFERSEEEVTKLNVL [YIL149C/MLP2]	3.4 ± 0.13	3.46 ± 0.093	3.31 ± 0.051	3.4 ± 0.069
AHFLSLSFTPTTVIGIR [RPN2]	1.57 ± 0.043	1.56 ± 0.041	1.28 ± 0.083	1.27 ± 0.031
TGGGLFGSKPTGATSLF [YGL172W/NUP49]	3.45 ± 0.11	3.57 ± 0.1	3.56 ± 0.045	3.62 ± 0.074
SSEGFYSKIKHLGLDDP [SIR2]	1.83 ± 0.2	2.72 ± 0.14	1.96 ± 0.17	1.2 ± 0.14
DSSLQPEYFESPLQSSK [YMR129W/POM152]	3.19 ± 0.2	2.98 ± 0.12		2.56 ± 0.13
IAVLIELLEERFQDSNP [YCS4]	1.62 ± 0.032	2.06 ± 0.058	2.66 ± 0.063	2.82 ± 0.069
AGVNNDNTKESKDVKMN [RTT102]	3.1 ± 0.25			2.35 ± 0.24
LICSIGLHSSEYKLRSL [ECM29]	2.03 ± 0.046	2.41 ± 0.05	2.26 ± 0.07	2.56 ± 0.038
HAERDLALAETLKLRAR [SRP68]	2.95 ± 0.15	2.74 ± 0.27		
YGKVYKAKRQINSGTNS [SSN3]	2.23 ± 0.066	2.04 ± 0.058	2.49 ± 0.094	2.68 ± 0.053
KGSRQCRVCSSHTGLIR [RPS29A]	2.73 ± 0.06	2.93 ± 0.049	2.62 ± 0.055	2.9 ± 0.043
EAINGFKDETISKKIIG [SIR3]	3.08 ± 0.065	3.19 ± 0.057	2.95 ± 0.082	3.09 ± 0.063
KDALSNSILSVRDPWSI [SRB2]	3.27 ± 0.07	3.41 ± 0.087	3.1 ± 0.06	3.36 ± 0.093

Sequence	protein stability index (doa10∆)	protein stability index (pdr5∆)	protein stability index (san1∆)	protein stability index (ubr1∆)
VISTIENVLFYIGRVNK [COB]	1.92 ± 0.069	1.89 ± 0.052	2.43 ± 0.058	2.62 ± 0.065
HDELDMNECIADQDMED [ESC2]	3.22 ± 0.092	2.64 ± 0.11	2.87 ± 0.07	2.97 ± 0.074
SKILSQAPSELELQVAK [RPS7B]	2.96 ± 0.057	3.07 ± 0.047	2.95 ± 0.063	3 ± 0.051
LNVVLDDAMEINGEDPA [SMX2]	3.35 ± 0.067	3.31 ± 0.07	3.46 ± 0.039	3.2 ± 0.067
ESDSKLQCHISGTTNFM [UBP6]	2.63 ± 0.23	2.69 ± 0.26	2.92 ± 0.28	3.08 ± 0.15
DGKLIDISGTMSGGGNH [SMC4]	3.42 ± 0.11	3.4 ± 0.11	3.54 ± 0.075	3.6 ± 0.088
SVLKDSDDKTRQLSPHT [PRE1]	2.56 ± 0.088	2.72 ± 0.11	2.43 ± 0.099	2.52 ± 0.067
VTSKVRNAEFKVSKNST [YMR153W/NUP53]	3.08 ± 0.15	3.49 ± 0.19	2.98 ± 0.11	3.28 ± 0.29
LEDELYHTNPGHSQFTS [RPN4]	3.34 ± 0.11	3.15 ± 0.09	3.05 ± 0.082	3.21 ± 0.071
KPAFSFGATTNDDKKTE [YJL041W/NSP1]	2.92 ± 0.099	3.07 ± 0.067	3.01 ± 0.058	2.89 ± 0.045
EQVKDDGTSTEKTFLHL [RPN8]	3.28 ± 0.12	3.66 ± 0.13	3.42 ± 0.05	3.46 ± 0.082
EPAIEEENGDSIKEHST [MED1]	3.32 ± 0.19		3.23 ± 0.14	3.56 ± 0.14
EMKNIRGPYLVIVPLST [SNF2]	1.44 ± 0.054	1.51 ± 0.053	1.44 ± 0.087	1.38 ± 0.043
YSIALSNVAAIFKGIGG [GAL11]	1.52 ± 0.08	1.55 ± 0.076	1.38 ± 0.18	1.48 ± 0.048
KLNKKLQHLRSRCHLVT [SRP68]	3.23 ± 0.11	3.34 ± 0.09	3.3 ± 0.039	3.27 ± 0.077
KMYSDDTLKDISTSFCF [BRN1]	3.36 ± 0.086	3.33 ± 0.067	3.42 ± 0.039	3.22 ± 0.067
VFFDDDPLYDITKVPAL [REC8]	2.47 ± 0.063	2.92 ± 0.082	2.7 ± 0.065	2.88 ± 0.055
VEDTLHVNKRKRVSGTS [YOR098C/NUP1]	1.42 ± 0.078	1.92 ± 0.13	1.73 ± 0.15	1.52 ± 0.077
ASYSKYLIDHIKVDGAV [RPL22B]	2.92 ± 0.09	2.65 ± 0.11	2.62 ± 0.053	2.83 ± 0.063
KALPIRRDDEVLVVRGS [RPL26A]	3.06 ± 0.18	3.05 ± 0.12	3.23 ± 0.13	3.32 ± 0.15
FDRLVAGQIPTGWNAKT [FAS2]	2.15 ± 0.18			
LSATGTRSAKKMVIAEL [YJR042W/NUP85]			2.97 ± 0.15	
